Results taken from publication PMC4898654 (Biochemistry, 2016).
Where no end group is shown, it is not given here.

Tests used:
Rev1-CT domain = details: human RIR motifs; cited from earlier work
Polκ RIR (Homo sapiens) [1] = biological target: Polκ RIR (Homo sapiens) (UniProt Q9UBT6); assay: SPR; details: cited from earlier work
Polκ RIR (Homo sapiens) [2] = biological target: Polκ RIR (Homo sapiens) (UniProt Q9UBT6); assay: intrinsic tryptophan fluorescence; details: cited from earlier work
[3] = biological target: T1, Human Rev1 C-terminal domain (Rev1-CT; residues 1158-1251) (human, UniProt Q9UBZ9 1158-1251); assay: SPR
T1 sequence (looked up): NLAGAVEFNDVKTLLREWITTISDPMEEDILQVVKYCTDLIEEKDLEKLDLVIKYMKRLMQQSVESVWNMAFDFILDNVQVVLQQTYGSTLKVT

yeast Rev7 = details: unstructured C-terminal part of Pol32, purified proteins; cited from earlier work

Molecule: CEMSHKKSFFDKKRSER [Polκ-RIR]
- affinity range of Rev1-CT interactions with RIR motifs (Rev1-CT domain): µM to mM affinities

Molecule: Rev1 CTD (from UniProt Q9UBZ9)
- Kd (Polκ RIR (Homo sapiens) [1]): 7600 nM
- Kd (Polκ RIR (Homo sapiens) [2]): 300 nM

Molecule: EMSHKKSFFDKKRSER [Polκ-RIR peptide (residues 560-575) modified with an N-terminal cysteine residue]
- Kd [3]: 1700 ± 600 nM

B1: Pol32: subunit of yeast Polζ (homologue of human PolD3) (protein, UniProt P47110 1-350, looked up)
DNA polymerase delta subunit 3: MDQKASYFINEKLFTEVKPVLFTDLIHHLKIGPSMAKKLMFDYYKQTTNAKYNCVVICCYKDQTIKIIHDLSNIPQQDSIIDCFIYAFNPMDSFIPYYDIIDQKDCLTIKNSYELKVSESSKIIERTKTLEEKSKPLVRPTARSKTTPEETTGRKSKSKDMGLRSTALLAKMKKDRDDKETSRQNELRKRKEENLQKINKQNPEREAQMKELNNLFVEDDLDTEEVNGGSKPNSPKETDSNDKDKNNDDLEDLLETTAEDSLMDVPKIQQTKPSETEHSKEPKSEEEPSSFIDEDGYIVTKRPATSTPPRKPSPVVKRALSSSKKQETPSSNKRLKKQGTLESFFKRKAK
- Rev7 - Pol32 interaction (yeast Rev7): direct interaction
